Substrate: NC(=O)N1c2ccccc2C=Cc2ccccc21
Assay: CPO-catalyzed degradation of carbamazepine, kinetic parameters (UV monitoring at 285 nm, CBZ concentration varied)
Format: biochemical, Caldariomyces fumago
Details: other: CBZ as substrate, 0.02 to 0.11 mM, CPO isolated from C. fumago (5 nM), 100 mM KH2PO4 buffer, 20 mM KCl, pH 2.75, H2O2 0.35 mM or 0.07 mM, absorbance at 285 nm, 0.1 to 0.2 mi
Excerpt: Chloroperoxidase (CPO) is a heme-containing glycoprotein secreted by the fungus Caldariomyces fumago.
The isolation of CPO proposed in this study was a modification of the protocol reported by Morris and Hager (1966), using acetone instead of ethanol as the fractionation solvent. CPO with Rz=1.45 was applied in all reactions (Rz is the purity standard, defined as A398/A280=1.44 for a pure enzyme). All solvents were HPLC grade or Optima® LC/MS grade, purchased from Thermo Fisher Scientific Inc. (Waltham, Mass., USA). Water was produced using a Milli-Q® Biocel™ Ultra-Pure water purification system equipped with 0.22 μM membrane filter cartridge (EMD Millipore, Billerica, Mass., USA), and an organic removal cartridge (Evoqua Water Technologies, Lowell, Mass., USA).
The rate was calculated by monitoring absorbance at 285 nm from 0.1 to 0.2 min. The reaction was carried out in 100 mM KH2PO4 buffer with 20 mM KCl at pH 2.75, with the concentration of CBZ varying from 0.02 to 0.11 mM. UV monitoring was started immediately after adding 0.35 mM H2O2.
All experiments were triplicated and data reported were mean values of three independent measurements with standard deviation.
1 min. after addition of 5 nM CPO, the 285 nm absorption decreased, and stopped […] at 4 min. The 285 nm wavelength was used to measure kinetic parameters of CBZ degradation catalyzed by CPO.

B1: chloroperoxidase (CPO) (Leptoxyphium fumago) (protein)
chain: QEPGSGIGYPYDNNTLPYVAPGPTDSRAPCPALNALANHGYIPHDGRAISRETLQNAFLNHMGIANSVIELALTNAFVVCEYVTGSDCGDSLVNLTLLAEPHAFEHDHSFSRKDYKQGVANSNDFIDNRNFDAETFQTSLDVVAGKTHFDYADMNEIRLQRESLSNELDFPGWFTESKPIQNVESGFIFALVSDFNLPDNDENPLVRIDWWKYWFTNESFPYHLGWHPPSPAREIEFVTSASSAVLAASVTSTPSSLPSGAIGPGAEAVPLSFASTMTPFLLATNAPYYAQDPTLGPND
notes: heme-containing glycoprotein secreted by the fungus Caldariomyces fumago; made in house; host or cells: Caldariomyces fumago (natural producer, not recombinant)
B1 was tested. Which Km did it give?
The Km was 73.35 µM.

— patent US10301203B2, “Chloroperoxidase-catalyzed degradation of pharmaceutical pollutants in wastewater” (THE FLORIDA INTERNATIONAL UNIVERSITY BOARD OF TRUSTEES, priority 2017, dated 2019)
